Measurements as given in the DeepSol protein solubility set.

Assay: soluble on expression in E. coli; label from the status in PepcDB or PDB records

Sequence	soluble on expression in E. coli
MASQEFQGFLDSSLLNEEDCRQMIYRSEREHDARMVGVNVDQHFTSQYRKVLTTWMFCVCKDLRQDNNVFPLAVALLDELFLSTRIDRENYQSTAAVALHIAGKVRAYMPIKATQLAYLCGGATTADKLLTLEVKSLDTLSWVADRCLSTDLICYILHIMHAPREDYLNIYNLCRPKIFCALCDGRSAMKRPVLITLACMHLTMNQKYDYYENRIDGVCKSLYITKEELHQCCDLVDIAIVSFDENYFKINA	soluble
MSLKVWGRGSSFNVQKVLWLVGELGLSHRHIPAGGDHGGLDEPSFLAMNPHGRVPVIDDGGVMVWESHAILRYLAARYGGSEWWPASPVDRAQADGWMDWAQTALQRDFLTGVFWGWYRTPEPERDNDAIRTALAACAKHFLLLDQILANRPFLGGDQPGLADIPCGTHLFRYYALEIDRPRTPNVEAWYARLQARPAYRKAVMIPFDEMKGRLAYEGHHHHHH	soluble
MKKAKKEKKEKIIKPDGPINFNRSIMAAFEKQSRGKICPLCETKFSLASYKSHMNTCNVADDDEEIEVIATYTRDEAILMRAGPEIILGDASFSDKSENPTKRRKTDEREVPSEDDIVPEVPGPSGIVKNHEMPSESLDVTEISENIEKVIKKSPEWINHRRRSSRLLQNSQKDQADNANKEDPVKKETATISEVLQAIERFEQRVSGPEQTWPYYIKITIKIMKRVISTEKFDGTFYADDFWLPSDIITFYRFVELLSEGAKCLLVRLFIRKPAWYNLEKLEQKYPEIPNIKEAVSELAKGHFIDDDSSMKTLDEALQISDVVALKNVTKKFKLDGTKNRQELIQSLRKFAQSQQSIFGGTGNVEKSILKSLKQELGPCVRVRGGFVDLFKCLFTIYCPVTTNSANVIDNPSTTNVYQDLLYLMLSVANGTVQFPAPNPCPIIASFYKNRNMLQDYMISKSLEIAIVSQMSNGNLDAALDLAIDAKEFIEQMSDDDKRYYESLEIHERKFTSIWVFTRCCGHASSILERQKKYGMAVEWQKDLLITNKDIQSYCIDSRGIWWDRMLLNLDSHLKEKKECAKMIQIALQDPSILEKELLMIQDRALKLKEMPADFVTPINIGNPEKKTITANVITKSLGDGRINRFMIRDHETDDDVECSVEEVTRRHYLENEGFSTGVHDEGSTWHTLFGLFFYDVIFATDESVESTWLSELQDCPSDLSNTLYSKRKEKFEDRFVWLEEAEQELIEENIRKIWDLKHNETNRECSWKQFPMGAEDCVSFFQCIPRPALILILRRLAENYRNSRSGFPDLTLWNPETKRVAVVEVKGPGDRLSTKQRLWLAIFADSGIRAEVCHVAAQNSRLLV	not soluble
MTTWTLNHNNLTKFLTHAQLEPSLERESGLIYITVPAGEHELPLFFVIRNEGEVLQLVCYFPYQIQQNQRDTTARLLHLVNRDIDIPGFGMDEEQNIIFYRLVIPCLKGEINEDLLRVYIDTIKLICDSFFHAIGLISTGNMDLDELKKQAKLENNQSDQLEP	soluble
MMGLLSTIRGKKEPVVGNGIGSAQVGPLNAKTKKLVIQEWPRVLAQCPELFTEIWHKSATRSTSIKLAFGIAENESPMQNAAFLGLSSTIQAFFYKLIITYELNDDQVREACEQLGARHVDFISRGFNSHFWDIFLVCMAEKIDETLSAYIPDEDKRNEMILAWQRVINSIVHQMRNGYSDRRKQQLGGTKGGSNNGF	not soluble
MGSDKIHHHHHHMSKEIDIEYYHQLALQKQKEHRKVLANLKKKPPKNLDKIAQQIHQEVFEEIDCTACANCCKTLGPDFKEADITRIAKYFKMKLPAFEAEFLQVDADGDKVFKSMPCPFLGGDNLCSIYDVRPKACREFPHTDRKKIHQINHLTIKNTLTCPAAYLFVEKLKDKL	not soluble
MSSFDKNDERAQLMVPKSINEGKVVKLSQKTLVTKKIERQVVPEEKYIAGLDKIIEKDYFPHLKKMQAQKEYLEAVANKDINKIKELQMKFCSTGSVRTDRSFRTPITTRSTTEAPDVSSFDADTPGPSSASTSSAHDWMQSPMPFANEEGDNEALNRKRKKKKEETLTSYLNKYTSEDNASFEELAKVMREREDARRPWVYKAEEEHNKNLVTRQAIAAEADVQLALKHAVDADDNRPLNVDNWAYKAWNTVLFNPDGAALTPAEIADAARKQQTEINKRGTRFPDSGKLKPSDEAMTRAAVSHALANAGKVDFLGNEVTPANSFKLLETPNPNPDDMDSPLMTWGEIDGTPFRLDAPDVTEHSLPGAAPVFKIPEVPYREKIAQSMNDSIAAKYRDKRKVAMRAAEGAHRTPGFGSKRVSDKLAQLSPAAQKLATKKLGLKMLPAHKSPFASPKIMSNWSRPSSSKRSTTPGSAWSRGSTTPGSSWSQGAQTPGTPGIESMIRRKGDNVGPSTSAGAADRANAGDFF	not soluble
MKKVALVTGAGQGIGKAIALRLVKDGFAVAIADYNDATAKAVASEINQAGGHAVAVKVDVSDRDQVFAAVEQARKTLGGFDVIVNNAGVAPSTPIESITPEIVDKVYNINVKGVIWGIQAAVEAFKKEGHGGKIINACSQAGHVGNPELAVYSSSKFAVRGLTQTAARDLAPLGITVNGYCPGIVKTPMWAEIDRQVSEAAGKPLGYGTAEFAKRITLGRLSEPEDVAACVSYLASPDSDYMTGQSLLIDGGMVFN	soluble
MAKESVKILQGKLDVKSLIDQLNAALSEEWLAYYQYWVGALVVEGAMRADVQGEFEEHAEEERHHAQLIADRIIELEGVPVLDPKKWFELARCKYDSPTAFDSVSLLNQNVSSERCAILRYQEIANFTNGKDYTTCDIAKHILAEEEEHEQDLQDYLTDIARMKESFLKK	soluble
MGSDKIHHHHHHMHHVKTGALSISRLEYGADVIIEPDHLDNFYLIQIPTQGYAEIEFGSQKFISYSQVASLISPQQSLRMCWHANSPQLILKVSKDDFTYHCRQHIADSENNLLIFDPKLDFSTQGGAYFLQLVRTLMDALACEQHPLHHPLAFKQFESNLFNALIYGQPNNALHKLDHYKEKTVSPYFVKRTEAYIKEHLHEPLNVEILAEHAGVSVRTLFTGFKNYLGTTPMSYLKELRFEQAHLELMHNENLSVTDVAFKWGFTHLGRFSQEYKRRYGELPSSTRRSGQSEGSGLITSIFS	not soluble
MSRGLLEACIEFIRETPAGDALRIVAYEFTFKRILLELKAALERGVDVRIVYHATTANEKAIADAKLPENSKGVQILFKRTRPQTPHNKFIVRLKKGKTPVSVWTGSTNFTPSGFLGQTNVGHKVTDGDIAKIYLQLWEGLKADPDDFDATQLEHHHHHH	not soluble
MIEFVYPHTQLVAGVDEVGRGPLVGAVVTAAVILDPARPIAGLNDSKKLSEKRRLALYEEIKEKALSWSLGRAEPHEIDELNILHATMLAMQRAVAGLHIAPEYVLIDGNRCPKLPMPAMAVVKGDSRVPEISAASILAKVTRDAEMAALDIVFPQYGFAQHKGYPTAFHLEKLAEHGATEHHRRSFGPVKRALGLAS	soluble
MSRHLTFHIITNVPYSNLNRDDSGTPKRVSLGGALRALHSSQSIKRGIRTKYELASLDTSIRSGKLVEEVVRVGLDLKPEVDEKLLRKGAAKIIGSLTKGESSEGESARSAWMSREEITTAAQTVIDGQEDSDFIQDNRTGSLAIAAFGRMFANAPKKNTEAALAVSPGVTTHAVTIETDYFSTVDDVREREHDSGATFLGVARYVNGTFYRTVSIDKEQLRESWSGFGQEESVDNLRELIKAIVYGAPRGKENSTAPYTLPSLVFAEEQHYRTAYSFETPVLVGKDGGFEFPTICELDRQFARARSFDKGNFGPLEVVSGTAVLEDEQFEGVQRSDLNGLIEAVVNWVTND	not soluble
GHHHHHHMKVGYVAIVGKPNVGKSTLLNNLLGTKVSIISPKAGTTRMRVLGVKNIPNEAQIIFLDTPGIYEPKKSDVLGHSMVEIAKQSLEEADVILFMIDATEGWRPRDEEIYQNFIKPLNKPVIVVINKIDKIGPAKNVLPLIDEIHKKHPELTEIVPISALKGANLDELVKTILKYLPEGEPLFPEDMITDLPLRLLAAEIVREKAMMLTREEVPTSIAVKINEIKPGDANPNMLVIKGEIIVDRENLKPIIIGKKGQRLKEIGKRARQELELILGRPVYLELWVKVVPDWRRRPEYVRLFGYAL	soluble
MNAFNLIIIGDEILHGSSQDKHFAFFKSLLESKGLKLNQVQYLPDEPDLLVRQLRRSFSDGMPTFVTGGIGATPDDHTRQAAAAALDLPVVRHSEAAKFIEGITQKRGEPLDSPEHAQRLKMADFPEGAELVPNPFNNIAGFSIREHYFFPGFPVMAHPMAEWVLETYYADRFNQTERGSRSVYVFEQPESRITPLMEHIEQTYPGVRSYSLPSVGWTHSDGTQVKPHIEFGIKAEGEAVNLLDAAWAEVLHSLDGLGAELKNRVN	not soluble
